Laboratory results: IntAct's records for PubMed 22493017

B1: Biopolymer transport protein ExbD (Escherichia coli (strain K12)), P0ABV2 (parent)
chain: MAMHLNENLDDNGEMHDINVTPFIDVMLVLLIIFMVAAPLATVDVKVNLPASTSTPQPRPEKPVYLSVKADNSMFIGNDPVTDETMITALNALTEGKKDTTIFFRADKTVDYETLMKVMDTLHQAGYLKIGLVGEETAKAK
B2: Protein TonB (Escherichia coli (strain K12)), P02929 (parent)
chain: MTLDLPRRFPWPTLLSVCIHGAVVAGLLYTSVHQVIELPAPAQPISVTMVTPADLEPPQAVQPPPEPVVEPEPEPEPIPEPPKEAPVVIEKPKPKPKPKPKPVKKVQEQPKRDVKPVESRPASPFENTAPARLTSSTATAATSKPVTSVASGPRALSRNQPQYPARAQALRIEGQVKVKFDVTPDGRVDNVQILSAKPANMFEREVKNAMRRWRYEPGKPGSGIVVNILFKINGTTEIQ
partner: B1 chain

Variants of: B1
Settings: with tonb_ecoli tonB, P02929

Variant	effect of a mutation on the interaction
D25N	decreasing interaction
A92C	increasing interaction
K97C	increasing interaction
T109C	increasing interaction

Variants of: B2
Settings: with exbd_ecoli exbD, P0ABV2

Variant	effect of a mutation on the interaction
A150C	increasing interaction
G152C	increasing interaction
P164C	increasing interaction
R166C	increasing interaction
Q168C	increasing interaction
L170C	increasing interaction
N200C	increasing interaction
F202C	increasing interaction
R204C	increasing interaction
R212C	increasing interaction
